Assay: label from the status in PepcDB records
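Further: failed if final PepcDB status was selected cloned or expressed and not failed if soluble or beyond.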

| Sequence | protein production |
| --- | --- |
| MRIIFKIIAFLSFFAFLSGCGAGLTAFSKGERLEREGKLDEAVIKYSEAVASNPEMNEYRMRLLKTSEEAALRHLSKGDEFIALKNYDAALVEYQAAVALDPSLQRAKQESDKLVRQKNSRTYFKEGQDFERGNKPREALQAYRKALDLDGQNKEAKEALERLLSTKKTRLEGYELNLKSTKPITLKFKDANLKDVFYIVTQLSGINFIFDDTIKDQKVTIYLENANFQQALDLLTNMNKLGKKVLNESTILIFPKTPEKSKQYEDLVVKTFFLNTLDAKKAVNLLRTMLQVRKVYVNEELNAIVVRDTSELVDVAGKILEANDVPDAEVLLDVEVIEVSKRNIENFGLALSKYAVSLNTQTPGGGFLNDTFSRASVSSSTGTTIQGTAGSELLQTFSWNGYSGFMTVPSASYSFGKSITNAEVLANPKIRVKNREKSKFTVGTRVPITTTSTTGTTGGFSVNVQYVDVGVKLNAEPTIMLNNEVSIKLGLEVSSIIDKQTVGGTDSATTVVTIGTRNLDTVLNLKDGETSVIGGLIEDNKQKGKQKIFLLGDIPIIGPLLSNNSNDNQKRELILAITPRLVRSVTVPEPDLVSFWSGKEDDPSVVKPFASFELEPEFAIGQPKTVKQPAASPAPVPASVSAPAQRVAPLQPVPGSPAPTAAPQTTTSPEVKQSAAPAPGQQPAPPSTAQSQAVAPLPVPASPAAPAATVAAASAVPVAAAPAPAVRGSLNISAPAAVNLGSQFKVEIRVSDVKGLLKAPFVLIYDPIFIDYVGAVEGTFLNRDGKPTSFNAQVDKAKGRVTITLARTGAEGIDGAGSLLTATFTAKNKGPASLGLQSVNFTDQANKPIDVVPYNTVVEVK | failed |
| MSLKICVIGSSGHFRYALEGLDEECSITGIAPGVPEEDLSKLEKAISEMNIKPKKYNNWWEMLEKEKPDILVINTVFSLNGKILLEALERKIHAFVEKPIATTFEDLEKIRSVYQKVRNEVFFTAMFGIRYRPHFLTAKKLVSEGAVGEIRLVNTQKSYKLGQRPDFYKKRETYGGTIPWVGIHAIDWIHWITGKKFLSVYATHSRLHNSGHGELETTALCHFTLENEVFASLSIDYLRPQGAPTHDDDRMRIVGTRGIVEVINERVFLTDEKGHREVPLVEKGQIFEDFLREIRGQGKCMVTPEDSILTTEIALKARLSADTGQIVLIEGHHHHHH | not failed |
| MQRKGDTPATLDLFADQTPQPRRDEQIGPGSWLFSGFALPAMPTLLLALEQTLGHSPFRHMLTPGGLSMSAALSSCGPLGWITDRHGYRYSDVDPQTGQPWPAMPDAFMQLAQSAALAAGYRGFVPDACLINRYIPGAKMSLHQDKDEHDHRWPVVSVSLGIPAIFQFGGMQRSDKTRRISLFHGDVVVWGGEDRLRFHGILPIKQAEHPLLGEQRINLTFRKAGRDSLEHHHHHH | not failed |
| MTKVLFVKANNRPAEQAVSVKLYEAFLASYKEAHPNDTVVELDLYKEELPYVGVDMINGTFKAGKGFDLTEEEAKAVAVADKYLNQFLEADKVVFGFPLWNLTIPAVLHTYIDYLNRAGKTFKYTPEGPVGLIGDKKIALLNARGGVYSEGPAAEVEMAVKYVASMMGFFGATNMETVVIEGHNQFPDKAEEIITAGLEEAAKVANKF | not failed |
| MIDRRRVRHSFHRQALEYDAHAAVQKRVVERFLQILDDEVGSPLRILDVGAGTGLLARQLADCHPAALLSCVDLAPGMAATARQRLGSRALVAVADAEHLPFAGASFDCVVSTSTFQWLTTLDAAFGEVWRVLAPGGLFAFALFGHGTFHELKDSYRSALTAVGREDEDRTQRFFTEAEAGAALERTGFGVRRLCVEDEVEWHPDVPAFLRSVKRVGAGNASPLRGRGLAERRVMVEMMRVYGERYGGERGIPATYTVIYGVGVKSGRK | failed |
| MQYSSFGEKFNRYSGITQLMDDLNDGLRTPGAIMLGGGNPAAIPAMLDYFHNTSAEMLADGSLLNAMTNYDGPQGKDVFVKSLATLLRETYGWNISEKNITLTNGSQSGFFYLFNLFAGKQPDGAHKKILLPLAPEYIGYGDAGIDDDIFVSYRPEIELLDQGLFKYHVDFSELKVDESVAAICVSRPTNPTGNVLTEEEIHKLDQLARDNGVPLIIDNAYGVPFPNIIFEDIEPFWNDNTILCMSLSKLGLPGLRCGIVIANEAVTQALTNMNGIISLAPGSMGPALVQRMIEKGDLLRLSEQVIKPFYRQKAQHAVELLQSAITDPRFRIHKPEGAIFLWLWFDELPITTMELYQRLKARGVLIVPGEYFFIGQPQEWPHAHECLRMNYVQNEQAMEQGIAIIAEEVQKAYQQANV | failed |
| GEELLPDGVPEEVMESAQPVANEEIVAQLVSMGFSQLHCQKAAINTSNAGVEEAMNWLLSHMDDPDIDAPI | not failed |
| MEKYILSIDQGTTSSRAILFNQKGEIAGVAQREFKQYFPQSGWVEHDANEIWTSVLAVMTEVINENDVRADQIAGIGITNQRETTVVWDKHTGRPIYHAIVWQSRQTQSICSELKQQGYEQTFRDKTGLLLDPYFAGTKVKWILDNVEGAREKAENGDLLFGTIDTWLVWKLSGKAAHITDYSNASRTLMFNIHDLEWDDELLELLTVPKNMLPEVKASSEVYGKTIDYHFYGQEVPIAGVAGDQQAALFGQACFERGDVKNTYGTGGFMLMNTGDKAVKSESGLLTTIAYGIDGKVNYALEGSIFVSGSAIQWLRDGLRMINSAPQSESYATRVDSTEGVYVVPAFVGLGTPYWDSEARGAIFGLTRGTEKEHFIRATLESLCYQTRDVMEAMSKDSGIDVQSLRVDGGAVKNNFIMQFQADIVNTSVERPEIQETTALGAAFLAGLAVGFWESKDDIAKNWKLEEKFDPKMDEGEREKLYRGWKKAVEATQVFKTE | failed |
| MHELIRDITLCILFAWMLGLLAHFSRQPLILAYLIAGFCIGPFGAGWVKSQESISVISELGLIFMLFMIGLEIDLKKIVRAGKVILFAAGGQLPGGCLLGVLFFAGIGLSLGGGHFDAVYLCIACALSSTVIIVKVLYEKRELDTLPGRITLGVLVLQDIFAILFLAVQPSLANLQVSVILLSIGRVAVLVAAALLVSRYVLPRLFHQIARRPELILLGALAWCFLVAETAERLSLSREMGALIAGVSLSTFPYALDVTAKVTTLRDFFITLFFVALGMTIPVPGLSVIGLALMIAAFTVVSRLVTTFTPLYLMKQGLRASLLPALNLAQISEFSLVVIQTGVTDNHIAAETANAASFAFVVLAVLSTFVMTRSDEIARWAIGPLKRIGLRDLDHGNGHAEEGHEGGHGEARRIVILGFFRAASALLAEIERQAPVLLEQITVVDFNPNVYQTLLSRGLHVIYGDISSADTLLHAGVGKSEMIILSVPDALLKGASNEKLVRHVRTLNPTAMIVATADLLSDVGELYEAGASYVTVTRLSDAHELFTVIEAAQAGLLADKRAELDLRLGERREVLP | failed |
| MQATTATPHDIVFLFDCDNTLLDNDHVLADLRAHMMREFGAQNSARYWEIFETLRTELGYADYLGALQRYRLEQPRDTRLLLMSSFLIDYPFASRVYPGALNALRHLGARGPTVILSDGDVVFQPRKIARSGLWDEVEGRVLIYIHKELMLDQVMECYPARHYVMVDDKLRILAAMKKAWGARLTTVFPRQGHYAFDPKEISSHPPADVTVERIGDLVEMDAEWLLAEKR | not failed |
| MVKVPVLRIGKVAAPTGADHALAGSAFPAKNAIADVNPPASPWIDKSVAAQRTEKAGLAAPRSEVTLDFVPPVTRRTPRITFPRRGRSDWTHSLTNSLRMSDTALVAAAVFAGFALNTNGLSLAAESPAFTHHLMTGLILGLVWLGALEVYRTRDPKVLGVGPEEYKRVLSASFRVFGFLGIVAVVFRLDAVSSFVLVSLPLGLVALTGSRWSFRRWLSHEKSRGRCLSRAIVVGEPQDVRYVIKQINRKSGAAYDILGACLPGARRGAVLKVDHLRVPVLSSIYGIAHTVRQTGANAVIVAGPVPGGNQFIQELGWQLEENAAELVLAATLTNVAGPRIHWRPVEGLPLMHVDIPHYSGGKHTLKRLMDITVSASALLILSPILLLLAAIVHHDSPGPVLFRQERVGRRGTTFHMLKFRSMVVDAESRLEELNTRDEGAGVLFKIRGDPRITRCGRWMRKYSLDELPQFWNVLVGNMSLVGPRPPLAREVSGYERHTHRRLLIKPGITGLWQINGRSDLPWDEAVRLDLYYVENWSIAGDLIIMWRTFRAMIQPSGAY | failed |
| MKATTSLATSCRRLLLWGVLTLQCLFSTAQKRFTADVEQQAEKILSQMTLDEKLSYIGGINWMYTRPLERFGIPRLKMSDGPQGLGTHGPSTAYPCALMLAATWNEQLATEYGSALGKDCRARGVHVLLGPAVNIYRAPMCGRNFEYMGEDPYLTSRMATGYIKGVQGQGVMATIKHFIANNSDYDRDHISSDIDERTLNEIYFPSFRAAVQEAEVGAVMSSYNLLNGIYTTEHPWLLKDVLRQQWGFKGILMSDWGSTHHCIPAVKGGLDLEMPAGSKMQPEELKYYLRTGDITIETIDEKVRHILQTLLAFGFRETQQPDTHIPLKNPQCAQTALNVASEGLVLLKNTNQILPIRSGKVKTIAVVGKNAQGYVCGGGSGEVHPFQYVSVLDGIRKEAAERDIRVEYLDVYDYLPTIIFTDTERKQKGFRAQYFDNMNLEGTPKVEQTETKINYSWSGGTGLKEMPKEQFSVRWNGTICPQETDEYLFTLGGDDGYRLYIDGKLIADEWHEGAFRNSTYRCMLEAGKKYDLKIEYFQKGGGAAVNFIWKQKNASNNLFVEALNRNDLVVACIGFNSDTEGEGRDRTFELPEDEAQLLQNTLQSKRPVVGIVNAGGNVEMQSWEPSLKGLLWAWYGGQEAGTAIARTLFGELNPSGKLPITFEKRWEDNPTFHSYYDPDGDKHVEYAEGIFVGYRGYDKLKREVQYPFGYGLSYTRFKLSAPTVGTPKTDGSVTVTCKLTNTGRTAGAEVVQLYVSNKDTTVEHPEKELKGFRKVYLEPGETKSIEITVPAEAFSHYDTGSRRFVIDRGSHDILLGFSSRDIKAKMSVGISR | failed |
| MNAPGLAIEGLGVAYGARTVIAGLSLGPLPHGTLTALLGPNGSGKSTLLKAVAGLLPARGGAIALDGQRLDQADLAQRAQQVAYLPQGLPADVHLRVFESVLVAARAHGGEAAGQIGPPAIAALLERLGIGHLALQFLDELSGGQKQLVGLAQALIRRPRVLLLDEPLSALDPNYQFHVMDLLRQETRDHGLITIAALHDINIALRHADQALLIRAGELAAAGEPAAVIDAPMLARVYGIQARVERCSRGHPHVLVDGVAGPVR | failed |
| MSALLGILGVVLDARFGEPQGWHPLVAFGRLADRLERRFNRSRLAGEADPGVGWRSHGVTAWVLAVLPLTLLAWALAELPYLGWLVQALALYAALGLRSLGEHAEPVALALRAGDLDEARRRVGYLVSRDTRELDQAGVARAATESVLENGSDAVYAALFWFAVAGAPGVVLYRLSNTLDAMWGYRNARFERFGWAAAKIDDILNYLPARLVALTYALLGDTRQALRCWREQAPQWDSPNAGPVMAAGAGALGVFLGGAAIYHGELHQRPLLGSGPQPQGRDIYRALALVRQGVLLWLLVLAGLWAMGWLHA | failed |
| MSGTLLAFDFGTKSIGVAVGQRITGTARPLPAIKAQDGTPDWNIIERLLKEWQPDEIIVGLPLNMDGTEQPLTARARKFANRIHGRFGVEVKLHDERLSTVEARSGLFEQGGYRALNKGKVDSASAVIILESYFEQGY | not failed |
| MPVTEKDLAEDAPWKKIQQNTFTRWCNEHLKCVNKRIGNLQTDLSDGLRLIALLEVLSQKRMYRKYHQRPTFRQMQLENVSVALEFLDRESIKLVSIDSKAIVDGNLKLILGLVWTLILHYSISMPVWEDEGDDDAKKQTPKQRLLGWIQNKIPYLPITNFNQNWQDGKALGALVDSCAPGLCPDWESWDPQKPVDNAREAMQQADDWLGVPQVITPEEIIHPDVDEHSVMTYLSQF | failed |
| MFKVTFAFENGSEVEAFANAGDNLLEVARGANVAIDAPCSGNGACGKCRVQLKGGELDSKKTLHISDEEFEKGWRLACMSKICADVEVLVPDIASAYKSRMKVA | failed |
| PRAAGHSEEVLEREASFSLTTIDGEVISLNNVGGDVVILWFMAAWCPSCVYMADLLDRLTEKYREISVIAIDFWTAEALKALGLNKPGYPPPDTPEMFRKFIANYGDPSWIMVMDDGSLVEKFNVRSIDYIVIMDKSSNVLYAGTTPSLGELESVIKSVQGG | not failed |

— a protein production outcome set (Wang et al. 2014)
